Experimental data from patent publication US10947272B2, “BACE1 inhibitor peptides” (HOFFMANN-LA ROCHE INC., priority 2015, dated 2021).
Like-named read-outs stand apart in the source and are kept apart here. Numbered stars: 1 amine (or outer) side, 2 acyl side, 3 side chain; on linkers, the order of the positions; unused ones are H or OH. Square brackets hold non-standard residues; d marks the D form. Ends that are not written are not given here. Peptide text beside a SMILES is read from it. MetSta(3S,4S) = CSCC[C@H](N[*:1])[C@@H](O)CC(=O)[*:2]; Sta = CC(C)C[C@H](N)[C@@H](O)CC(=O)O

Legend:
[1] = biological target: BACE1 (Asp2, β-secretase, Memapsin-2) in HEK293 cells stably expressing human APP695 (UniProt P56817); experiment: cell-based or functional assay
Chain of BACE1 (Asp2, β-secretase, Memapsin-2) in HEK293 cells stably expressing human APP695 (UniProt P56817) (P56817 46-501 limits assumed): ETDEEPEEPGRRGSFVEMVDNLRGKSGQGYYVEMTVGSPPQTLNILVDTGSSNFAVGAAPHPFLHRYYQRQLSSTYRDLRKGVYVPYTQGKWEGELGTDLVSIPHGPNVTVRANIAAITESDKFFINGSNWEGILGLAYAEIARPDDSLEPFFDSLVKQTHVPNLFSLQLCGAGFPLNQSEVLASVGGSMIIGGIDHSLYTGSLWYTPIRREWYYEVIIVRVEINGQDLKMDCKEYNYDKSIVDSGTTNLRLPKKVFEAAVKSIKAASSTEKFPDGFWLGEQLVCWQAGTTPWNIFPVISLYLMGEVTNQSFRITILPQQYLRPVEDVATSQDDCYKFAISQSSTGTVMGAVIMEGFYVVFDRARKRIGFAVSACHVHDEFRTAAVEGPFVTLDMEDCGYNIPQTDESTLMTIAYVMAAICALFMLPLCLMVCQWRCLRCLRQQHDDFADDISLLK

[2] = biological target: T1, BACE1 (Homo sapiens, UniProt P56817); experiment: Cellular Aβ-lowering assay (Aβ40 ELISA of culture supernatant); format: cell-based; settings: HEK293 cells stably transfected with human APP wt (APP695), Aβ40 in supernatant, read-out: IC 50
T1 construct: Human HEK293 cells which are stably transfected with a vector expressing a cDNA of the human APP wt gene (APP695); endogenous in cells; host or cells: HEK293 (human), stably transfected with human APP695 wt cDNA
T1 sequence (P56817 46-501): as the sequence (P56817 46-501 limits assumed) above
Experimental: The compounds were investigated in accordance with the test given hereinafter. Cellular Aβ-Lowering Assay: Human HEK293 cells which are stably transfected with a vector expressing a cDNA of the human APP wt gene (APP695) were used to assess the potency of the compounds in a cellular assay. The cells were seeded in 96-well microtiter plates in cell culture medium (Iscove, plus 10% (v/v) fetal bovine serum, glutamine, penicillin/streptomycin) to about 80% confluence and the compounds were added at a 10× concentration in 1/10 volume of medium without FCS containing 8% DMSO (final concentration of DMSO was kept at 0.8% v/v). After 18-20 hrs incubation at 37° C. and 5% CO2 in a humidified incubator the culture supernatant was harvested for the determination of Aβ40 concentrations. 96 well ELISA plates (e.g., Nunc MaxiSorb) were coated with monoclonal antibody which specifically recognize the C-terminal end of Aβ40 (Brockhaus et al., NeuroReport 9, 1481-1486; 1998). After blocking of non-specific binding sites with e.g. 1% BSA and washing, the culture supernatants were added in suitable dilutions together with a horseradish peroxidase-coupled Aβ detection antibody (e.g., antibody 4G8, Senetek, Maryland Heights, Mo.) and incubated for 5 to 7 hrs. Subsequently the wells of the microtiter plate were washed extensively with Tris-buffered saline containing 0.05% Tween 20 and the assay was developed with tetramethylbenzidine/H2O2 in citric acid buffer. After stopping the reaction with one volume 1 N H2SO4 the reaction was measured in an ELISA reader at 450 nm wavelength. The concentrations of Aβ in the culture supernatants were calculated from a standard curve obtained with known amounts of pure Aβ peptide.

[3] = biological target: T2, BACE1 (Asp2, β-secretase, Memapsin-2) in HEK293 cells stably expressing human APP695 (UniProt P56817 46-501, limits assumed); experiment: cell-based or functional assay
T2 sequence (P56817 46-501 limits assumed): as above

[4] = biological target: T2, BACE1 (Asp2, β-secretase, Memapsin-2) …; experiment: cell-based or functional assay; remark: listed apart in the source

Row | Molecule | IC 50, cellular Aβ-lowering assay (Aβ40 in supernatant of HEK293 cells expressing human APP695) [3] [µM] | other results
1 | H-YPY[dK]IPLG[dK]GEVN[Sta]VAE[dP]-NH2 | – | IC 50, cellular Aβ-lowering assay (Aβ40 in supernatant of HEK293 cells expressing human APP695) [1]: 34.8 µM
2 | CC[C@H](C)[C@H](NC(=O)[C@H](Cc1ccccc1)NC(=O)[C@H](CCCNC(=N)N)NC(=O)[C@H](C)NC(=O)CNC(=O)[C@@H](NC(=O)[C@H](CO)NC(C)=O)[C@@H](C)O)C(=O)N1CCC[C@H]1C(=O)N[C@@H](C)C(=O)N[C@@H](CC(N)=O)C(N)=O [Example E3, Ac-Ser-Thr-Gly-Ala-Arg-Phe-Ile-Pro-Ala-Asn-NH2] (Ac-STGARFIPAN-NH2) | – | IC50 ([2]; exosite motifs alone): > 40 µM
3 | CC[C@H](C)[C@H](NC(=O)[C@H](Cc1ccccc1)NC(=O)[C@H](CCCNC(=N)N)NC(=O)[C@H](C)NC(=O)CN)C(=O)N1CCC[C@H]1C(=O)N[C@@H](C)C(=O)NCC(=O)N[C@H](CCCCN)C(=O)NCC(=O)N[C@@H](CCC(=O)O)C(=O)N[C@H](C(=O)N[C@@H](CC(N)=O)C(=O)N[C@@H](CC(C)C)[C@@H](O)CC(=O)N[C@H](C(=O)N[C@@H](C)C(=O)N[C@@H](CCC(=O)O)C(=O)N1CCC[C@@H]1C(N)=O)C(C)C)C(C)C [Example 16, Gly-Ala-Arg-Phe-Ile-Pro-Ala-Gly-DLys-Gly-Glu-Val-Asn-Sta-Val-Ala-Glu-DPro-NH2 × 3TFA] (H-GARFIPAG[dK]GEVN[Sta]VAE[dP]-NH2; N-terminus assumed) | – | IC50 ([2]; dual-site BACE1 inhibitors, 18-20 hrs incubation): 0.42 µM
4 | Ac-LTTYPYFKPA-NH2 [Ac-Leu-Thr-Thr-Tyr-Pro-Tyr-Phe-Lys-Pro-Ala-NH2] | 14.4 | –
5 | Ac-YPTFKPANGS-NH2 (not fully specified; printed as Ac-YPTFKPANGS-NH2) [Ac-YPTFKPANGS-NH2] | > 40 | –
6 | Ac-GDYPKFIPAS-NH2 [Ac-Gly-Asp-Tyr-Pro-Lys-Phe-Ile-Pro-Ala-Ser-NH2] | > 40 | –
7 | Ac-STGARFIPAN-NH2 [Ac-Ser-Thr-Gly-Ala-Arg-Phe-Ile-Pro-Ala-Asn-NH2] | > 40 | –
8 | EVN[Sta]VAEF-NH2 (also: TFA salt) [Glu-Val-Asn-Sta-Val-Ala-Glu-Phe-NH2 × TFA] | – | IC 50, cellular Aβ-lowering assay (Aβ40 in supernatant of HEK293 cells expressing human APP695) [4]: > 40 µM
9 | Ac-GSYPKFIDAN-NH2 [Ac-Gly-Ser-Tyr-Pro-Lys-Phe-Ile-Asp-Ala-Asn-NH2] | > 40 | –
10 | Ac-QQYPYFKPAN-NH2 [Ac-Gln-Gln-Tyr-Pro-Tyr-Phe-Lys-Pro-Ala-Asn-NH2] | > 40 | –
11 | EVN[MetSta(3S,4S)]VAE[dF]-NH2 (also: TFA salt) [Glu-Val-Asn-MetSta-Val-Ala-Glu-DPhe-NH2 × TFA] | – | IC 50, cellular Aβ-lowering assay (Aβ40 in supernatant of HEK293 cells expressing human APP695) [4]: > 40 µM
12 | Ac-GDYPKFISAN-NH2 [Ac-Gly-Asp-Tyr-Pro-Lys-Phe-Ile-Ser-Ala-Asn-NH2] | > 40 | –
13 | EVN[Sta]VAE[dP]-NH2 (also: TFA salt) [Glu-Val-Asn-Sta-Val-Ala-Glu-DPro-NH2 × TFA] | – | IC 50, cellular Aβ-lowering assay (Aβ40 in supernatant of HEK293 cells expressing human APP695) [4]: > 40 µM
